We go through 6 substances from the supplement of paper PMC5998384.

In data set [1] the test system is HeLa Kyoto. The data set is described as follows: solubility in G1/S (NP-40 vs SDS abundance) (log2 ratio); higher = more soluble. To be noted: cell cycle stage: G1/S.
For data set [2], the system named is HeLa Kyoto. The data set is described as follows: solubility change mitosis vs G1/S (difference of NP-40 vs SDS log2 ratios) (log2 ratio difference); higher = more soluble in mitosis.
Data set [3] has as its system HeLa Kyoto. The data set is described as follows: melting temperature (median over replicates), in situ; higher = more thermally stable.
Data set [4] deals with HeLa Kyoto. The data set is described as follows: thermal stability score vs G1/S (z-score of summed log2 fold changes over temperatures); higher = more thermally stable than in G1/S.
Setting [5] is: cell cycle stage: early G1 (4.5 h after nocodazole release).
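Wherever melting temperature (median over replicates), in situ is given: HeLa Kyoto cells synchronized by double thymidine or nocodazole block, proteins quantified by TMT10plex mass spectrometry, three independent biological replicates.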
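Wherever solubility change mitosis vs G1/S (difference of NP-40 vs SDS log2 ratios) is given: synchronized HeLa Kyoto cells (double thymidine block for G1/S, nocodazole release for mitosis), protein amounts in NP-40 versus SDS lysates quantified by mass spectrometry, three biological replicates.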
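Wherever solubility in G1/S (NP-40 vs SDS abundance) is given: HeLa Kyoto cells arrested at G1/S by double thymidine block, proteins quantified by TMT10plex mass spectrometry in mild NP-40 versus SDS extracts, three biological replicates.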
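Wherever thermal stability score vs G1/S (z-score of summed log2 fold changes over temperatures) is given: synchronized HeLa Kyoto cells, proteins quantified by TMT10plex mass spectrometry, three biological replicates, mitosis taken 0.5 h after nocodazole release, G1/S directly after double thymidine block.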

In the case of “MEQLSSANTRFALDLFLALSENNPAGNIFISPFSISSAMAMVFLGTRGNTAAQLSKTFHFNTVEEVHSRFQSLNADINKRGASYILKLANRLYGEKTYNFLPEFLVSTQKTYGADLASVDFQHASEDARKTINQWVKGQTEGKIPELLASGMVDNMTKLVLVNAIYFKGNWKDKFMKEATTNAPFRLNKKDRKTVKMMYQKKKFAYGYIEDLKCRVLELPYQGEELSMVILLPDDIEDESTGLKKIEEQLTLEKLHEWTKPENLDFIEVNVSLPRFKLEESYTLNSDLARLGVQDLFNSSKADLSGMSGARDIFISKIVHKSFVEVNEEGTEAAAATAGIATFCMLMPEENFTADHPFLFFIRHNSSGSILFLGRFSSP [SERPINB1]”, the “solubility in G1/S (log2)” value in the data set with HeLa Kyoto [1] was found to be 0.121. The “solubility change mitosis (log2)” value in the data set with HeLa Kyoto [2] was -0.165. Also, the melting temperature with HeLa Kyoto [3] (cell cycle stage: G1/S) and in the data set on HeLa Kyoto [3] (cell cycle stage: mitosis) was 53.2 °C throughout. Also, the thermal stability score in the data set on HeLa Kyoto [4] (setting [5]) is 1.35; with HeLa Kyoto [4] (cell cycle stage: mitosis), -2.02.

As for PACS1, the “solubility in G1/S (log2)” value in the data set with HeLa Kyoto [1] was found to be 0.119. The “solubility change mitosis (log2)” value with HeLa Kyoto [2] was -0.211. In addition, the figures for the melting temperature with HeLa Kyoto [3] (cell cycle stage: G1/S) and with HeLa Kyoto [3] (cell cycle stage: mitosis) were 50.8 °C and 51.4 °C, respectively. For the same substance, the thermal stability score in the data set on HeLa Kyoto [4] (setting [5]) was -0.425; with HeLa Kyoto [4] (cell cycle stage: mitosis), 0.437.

On to “MSGLSGPPARRGPFPLALLLLFLLGPRLVLAISFHLPINSRKCLREEIHKDLLVTGAYEISDQSGGAGGLRSHLKITDSAGHILYSKEDATKGKFAFTTEDYDMFEVCFESKGTGRIPDQLVILDMKHGVEAKNYEEIAKVEKLKPLEVELRRLEDLSESIVNDFAYMKKREEEMRDTNESTNTRVLYFSIFSMFCLIGLATWQVFYLRRFFKAKKLIE [TMED10]”, for which the “solubility in G1/S (log2)” value with HeLa Kyoto [1] was determined as 0.076. In addition, in the data set on HeLa Kyoto [2], the “solubility change mitosis (log2)” value was -0.0383. Further, the results for the melting temperature in the data set on HeLa Kyoto [3] (cell cycle stage: G1/S) and in the data set with HeLa Kyoto [3] (cell cycle stage: mitosis) were 55.3 °C and 55.8 °C, respectively. For the same substance, the figures for the thermal stability score in the data set on HeLa Kyoto [4] (setting [5]) and in the data set with HeLa Kyoto [4] (cell cycle stage: mitosis) were 0.651 and -0.174, respectively.

In the case of “MAVVAAAAGWLLRLRAAGAEGHWRRLPGAGLARGFLHPAATVEDAAQRRQVAHFTFQPDPEPREYGQTQKMNLFQSVTSALDNSLAKDPTAVIFGEDVAFGGVFRCTVGLRDKYGKDRVFNTPLCEQGIVGFGIGIAVTGATAIAEIQFADYIFPAFDQIVNEAAKYRYRSGDLFNCGSLTIRSPWGCVGHGALYHSQSPEAFFAHCPGIKVVIPRSPFQAKGLLLSCIEDKNPCIFFEPKILYRAAAEEVPIEPYNIPLSQAEVIQEGSDVTLVAWGTQVHVIREVASMAKEKLGVSCEVIDLRTIIPWDVDTICKSVIKTGRLLISHEAPLTGGFASEISSTVQEECFLNLEAPISRVCGYDTPFPHIFEPFYIPDKWKCYDALRKMINY [BCKDHB]”, the “solubility in G1/S (log2)” value in the data set on HeLa Kyoto [1] was -0.09. In the data set on HeLa Kyoto [2], the “solubility change mitosis (log2)” value is -0.179. Further, the melting temperature in the data set on HeLa Kyoto [3] (cell cycle stage: G1/S) was found to be 52.6 °C; with HeLa Kyoto [3] (cell cycle stage: mitosis), 52 °C. Moreover, the thermal stability score was -0.96 with HeLa Kyoto [4] (setting [5]) and -1.83 in the data set with HeLa Kyoto [4] (cell cycle stage: mitosis).

As to “MAASCVLLHTGQKMPLIGLGTWKSEPGQVKAAVKYALSVGYRHIDCAAIYGNEPEIGEALKEDVGPGKAVPREELFVTSKLWNTKHHPEDVEPALRKTLADLQLEYLDLYLMHWPYAFERGDNPFPKNADGTICYDSTHYKETWKALEALVAKGLVQALGLSNFNSRQIDDILSVASVRPAVLQVECHPYLAQNELIAHCQARGLEVTAYSPLGSSDRAWRDPDEPVLLEEPVVLALAEKYGRSPAQILLRWQVQRKVICIPKSITPSRILQNIKVFDFTFSPEEMKQLNALNKNWRYIVPMLTVDGKRVPRDAGHPLYPFNDPY [AKR1A1]”, in the data set with HeLa Kyoto [1], the “solubility in G1/S (log2)” value was 0.534. Moreover, the “solubility change mitosis (log2)” value in the data set with HeLa Kyoto [2] is -0.00767. Further, the melting temperature is 52.1 °C with HeLa Kyoto [3] (cell cycle stage: G1/S) and 52.7 °C in the data set on HeLa Kyoto [3] (cell cycle stage: mitosis). Moreover, the thermal stability score in the data set on HeLa Kyoto [4] (setting [5]) is -0.223; in the data set on HeLa Kyoto [4] (cell cycle stage: mitosis) it was -1.09.

HEATR5B: in the data set on HeLa Kyoto [1], the “solubility in G1/S (log2)” value is -0.275. For the same substance, the “solubility change mitosis (log2)” value in the data set on HeLa Kyoto [2] was -0.00901. In addition, the melting temperature with HeLa Kyoto [3] (cell cycle stage: G1/S) amounted to 50.8 °C; in the data set on HeLa Kyoto [3] (cell cycle stage: mitosis), 52.4 °C. For the same substance, the thermal stability score was -0.405 with HeLa Kyoto [4] (setting [5]) and -0.289 with HeLa Kyoto [4] (cell cycle stage: mitosis).
